Experimental data as given in US20190144543A1 (TAYU HUAXIA BIOTECH MEDICAL GROUP, published 2019).
Positions count from the first letter of the chain named. Values belong to the molecule of their own block, whether it stands above or below them.

What was measured:
[1] = target: T1, human PD-1 (hPD-1) expressed on cells (human, UniProt Q15116 25-288); test: cell based RBA (hPD-1/hPD-L1): blocking of Biotin-hPD-L1 binding to CHOK1-hPD-1 cells, flow cytometry
[2] = target: T1, human PD-1 (hPD-1) expressed on cells
[3] = target: T1, human PD-1 (hPD-1) expressed on cells; test: cell-based or functional assay
[4] = target: T2, hPD-1mIg fusion protein (human; mouse, UniProt Q15116 25-170); test: SPR, Biacore T200, hPD-1mIg immobilized at 33 RU on CM5, antibody as analyte
T2 construct: extracellular domain; also called hPD-mIg; not shown: CH2-CH3 domain of mouse IgG2a heavy chain (plasmid pmIgG)
T2 sequence (Q15116 25-170): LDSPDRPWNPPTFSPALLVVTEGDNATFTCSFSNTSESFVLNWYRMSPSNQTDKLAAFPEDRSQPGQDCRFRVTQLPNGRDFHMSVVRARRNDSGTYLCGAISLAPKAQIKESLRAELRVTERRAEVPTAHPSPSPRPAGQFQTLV

[5] = target: T3, cynomolgus monkey PD-1 (cPD-1) expressed on cells (cynomolgus monkey, UniProt B0LAJ3 25-288); test: flow cytometry, FACS binding to CHOK1-cPD-1 cells
T3 construct: also called CHOK1-cPD-1; PD-1 on cynomolgus monkey T cell
T3 sequence (B0LAJ3 entry or part of it limits assumed): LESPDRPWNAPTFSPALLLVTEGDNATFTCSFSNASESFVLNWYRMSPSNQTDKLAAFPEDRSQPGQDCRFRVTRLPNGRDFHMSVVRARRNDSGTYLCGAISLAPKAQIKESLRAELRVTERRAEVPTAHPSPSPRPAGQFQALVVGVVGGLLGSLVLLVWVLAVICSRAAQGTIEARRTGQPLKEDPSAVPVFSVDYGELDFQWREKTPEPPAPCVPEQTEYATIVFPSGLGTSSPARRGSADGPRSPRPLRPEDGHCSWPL
Protocol: (§1) The bindings of the antibodies to hPD-1 and cross-reactivity to cynomolgus monkey PD-1 (cPD-1) were tested using hPD-1 or cPD-1 expressing CHOK1 cells by flow cytometry. CHOK1-hPD-1, CHOK1-cPD-1 and CHOK1 blank cells were incubated with a serial dilution of test articles followed by Alexa Fluor® 488 conjugated goat anti-human IgG (H+L) antibody, and analyzed using a FACSCanto II (BD Biosciences, San Jose, Calif.).

[6] = target: T1, human PD-1 (hPD-1) expressed on cells; test: flow cytometry, FACS binding to CHOK1-hPD-1 cells
Protocol: as §1

[7] = target: T2, hPD-1mIg fusion protein; test: SPR, Biacore T100, hPD-1mIg immobilized on CM5, antibody as analyte
Protocol: The binding affinity and kinetics of the humanized PD-1 mAbs interact with hPD-1 protein was assessed with Biacore T100 (GE Healthcare Life Sciences). […] Nine different concentrations were tested for each sample. Detailed binding kinetic parameters (association rate, Ka, dissociation rate, Kd, and affinity constant, KD) can be determined by full kinetic analysis.

T1 sequence (Q15116 25-288): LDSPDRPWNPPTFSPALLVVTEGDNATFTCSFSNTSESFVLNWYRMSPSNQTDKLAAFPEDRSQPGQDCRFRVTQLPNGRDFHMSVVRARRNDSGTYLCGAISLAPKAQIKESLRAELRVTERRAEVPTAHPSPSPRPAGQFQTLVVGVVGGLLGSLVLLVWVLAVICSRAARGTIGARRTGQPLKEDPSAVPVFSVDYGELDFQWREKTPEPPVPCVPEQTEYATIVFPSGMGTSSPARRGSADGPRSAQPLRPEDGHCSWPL

Inhibition rate [1]: 4.8%
EC50 of luciferase signal (RLU), PD-1/PD-L1 Blockade Bioassay with Jurkat-PD1 and CHO-PD-L1 cells; the Ctrl IgG4 curve is flat at about 270000 RLU and never rises [2]: 12.4 µg/mL
Molecule: control human IgG4 (antibody)

EC50 of luciferase signal (RLU), PD-1/PD-L1 Blockade Bioassay with Jurkat-PD1 and CHO-PD-L1 cells [3]: 0.224 µg/mL
fold slower dissociation rate Kd than the two commercial antibodies (Pembrolizumab, Nivolumab) [4]: 10 times
B1: Variant 3 (TY101) (humanized, VH variant a / VK variant c) (antibody, V domains shown)
VH: EVQLVESGGGLVQPGGSLRLSCAASGFTFSSYTMSWVRQAPGKGLEWVSYISHGGGDTYYADSVKGRFTISRDNSKNTLYLQMNSLRAEDTAVYYCARHSGYERGYYYVMDYWGQGTLVTVSS
VL: DIQLTQSPDSLSVSLGERATINCKASESVDYYGFSFLNWFQQKPGQPPKLLIYAASNRQSGVPDRFSGSGSGTDFTLTISSLQAEDVAVYFCQQSKEVPWTFGQGTKLEIKR
notes: hIgG4 is the negative control; also called mutant combination 3

EC50 (read off the curve) [5]: ~2 nM
EC50 (read off the curve) [6]: ~0.9 nM
B2: TY101-4G1 (antibody, V domains shown)
VH: B1 VH
VL: B1 VL
notes: TY101 is Variant 3 (VH a, VK c); isotype control is hIgG4; also called TY101 clone TY101-4G1

EC50 (read off the curve) [5]: ~2 nM
EC50 (read off the curve) [6]: ~0.9 nM
B3: TY101-04-T3-05 (antibody, V domains shown)
VH: B1 VH
VL: B1 VL
notes: TY101 is Variant 3 (VH a, VK c); isotype control is hIgG4; also called TY101 clone TY101-04-T3-05

EC50 (read off the curve) [5]: ~2 nM
EC50 (read off the curve) [6]: ~0.9 nM
B4: TY101-01-09 (antibody, V domains shown)
VH: B1 VH
VL: B1 VL
notes: TY101 is Variant 3 (VH a, VK c); isotype control is hIgG4; also called TY101 clone TY101-01-09

kon [7]: 119000 M⁻¹ s⁻¹
B5: Variant 4 (humanized, VH variant b / VK variant a) (antibody, V domains shown)
VH: B1 VH with A61P
VL: B1 VL with Q3V, L4M, S12A, A25S, Q59E, F91Y
notes: also called mutant combination 4
